The results in this text go back to the RNAGym collection of RNA variant scans (doi:10.7554/elife.90254).

The chains are these.
B1: LINE1-mini (parent)
chain: GGCAGAGCUCAACACAGCGUGGCAAAGUGGCUGUGGCUAGACUGCC

In this data set the parent is B1. In words: self-cleavage, relative activity (ratio to wild type); higher = more cleavage; in vitro, sequencing; the parent is a self-cleaving ribozyme.
A24C U34G: the self-cleavage was determined as 0.05.
On to A24C U34C, for which the self-cleavage was determined as 0.12.
The result for A24C U34A reads 0.07.
With A24G, the self-cleavage is 1.1.
For A24U, the self-cleavage was 1.42.
The result for A24C U38G reads 0.01.
In the case of A24C U38C, the self-cleavage stood at 0.31.
The result for A24C U38A reads 0.3; that for A25C, 0.66; that for A25U, 1.21.
Consider A25G, for which the self-cleavage is 0.73.
Turning to A25U G36A, the self-cleavage worked out at 0.12.
A25U G36U: the self-cleavage worked out at 0.07.
The result for A25U G36C reads 0.05.
The result for A24U U34G reads 0.24; that for A24U U34A, 0.08.
In the case of A24U U34C, the self-cleavage worked out at 0.09.
With A24G U28G, the self-cleavage was determined as 0.45.
Take A24G U28C: the self-cleavage amounted to 0.72.
The result for A24G U28A reads 0.94; that for A25G U34A, 0.06; that for A25G U34G, 0.12.
Consider A25G U34C, for which the self-cleavage is 0.07.
On to A25U U32C, for which the self-cleavage was 0.27.
For A25U U32A, the self-cleavage was determined as 0.04.
Take A25U U32G: the self-cleavage stood at 0.3.
Take A25C C42A: the self-cleavage was determined as 0.11.
The result for A25C C42G reads 0.04; that for A25C C42U, 0.41.
The result for A25G A41C reads 0.04; that for A25G A41G, 0.26; that for A25G A41U, 0.19.
A24U U32G: the self-cleavage is 0.12.
As for A24U U32A, the self-cleavage came to 0.07.
Consider A24U U32C, for which the self-cleavage turned out to be 0.2.
On to A25C C46A, for which the self-cleavage was 0.36.
Take A25C C46U: the self-cleavage was found to be 0.56.
On to A25C C46G, for which the self-cleavage stood at 0.75.
The result for A24G G29C reads 0.48; that for A24G G29U, 1.07.
Take A24G G29A: the self-cleavage turned out to be 0.8.
A24G C42U: the self-cleavage was determined as 0.41.
As for A24G C42A, the self-cleavage is 0.19.
The result for A24G C42G reads 0.06.
Take A24G U38G: the self-cleavage turned out to be 0.03.
The result for A24G U38C reads 0.71; that for A24G U38A, 0.76; that for A25G A39G, 0.07.
For the variant A25G A39C, the self-cleavage worked out at 0.22.
A25G A39U: the self-cleavage stood at 0.81.
For A25C G33U, the self-cleavage was determined as 0.15.
In the case of A25C G33C, the self-cleavage was 0.04.
The result for A25C G33A reads 0.05; that for A24G A39G, 0.07.
The result for A24G A39C reads 0.27.
With A24G A39U, the self-cleavage was found to be 1.31.
For the variant A24U C46G, the self-cleavage came to 1.03.
For the variant A24U C46U, the self-cleavage turned out to be 1.09.
In the case of A24U C46A, the self-cleavage came to 2.01.
The result for A25C G27A reads 0.55.
Consider A25C G27U, for which the self-cleavage turned out to be 0.46.
In the case of A25C G27C, the self-cleavage was found to be 0.39.
For A25G U28A, the self-cleavage turned out to be 1.01.
In the case of A25G U28G, the self-cleavage turned out to be 0.57.
A25G U28C: the self-cleavage is 0.84.
In the case of A25C U34C, the self-cleavage is 0.08.
In the case of A25C U34G, the self-cleavage amounted to 0.06.
The result for A25C U34A reads 0.12; that for A25U G29U, 2.16; that for A25U G29C, 0.38.
The result for A25U G29A reads 0.79; that for A24C U43A, 0.02.
As to A24C U43C, the self-cleavage amounted to 0.1.
Take A24C U43G: the self-cleavage came out at 0.37.
Consider A24U A26U, for which the self-cleavage amounted to 1.34.
In the case of A24U A26G, the self-cleavage stood at 0.84.
The result for A25G U38C reads 0.14.
As for A25G U38G, the self-cleavage was determined as 0.01.
As to A25G U38A, the self-cleavage came to 0.46.
Consider A24U C42U, for which the self-cleavage amounted to 0.4.
On to A24U C42A, for which the self-cleavage is 0.18.
As to A24U C42G, the self-cleavage is 0.06.
As for A24G C31G, the self-cleavage came to 0.05.
A24G C31A: the self-cleavage turned out to be 0.15.
Turning to A24G C31U, the self-cleavage is 0.29.
On to A25C A41U, for which the self-cleavage was 0.52.
As to A25C A41G, the self-cleavage stood at 0.28.
For the variant A25C A41C, the self-cleavage amounted to 0.04.
With A25G C37A, the self-cleavage was 0.05.
The result for A25G C37G reads 0.03; that for A25G C37U, 0.06; that for A25G C31G, 0.27.
The result for A25G C31A reads 0.1; that for A25G C31U, 0.13; that for A25G C45A, 0.86.
The result for A25G C45U reads 0.45.
On to A25G C45G, for which the self-cleavage was 0.17.
Regarding A25C A26U, the self-cleavage came out at 0.68.
As for A25C A26C, the self-cleavage was determined as 1.13.
A24U U28G: the self-cleavage was 0.39.
Regarding A24U U28C, the self-cleavage is 0.69.
On to A24U U28A, for which the self-cleavage amounted to 1.25.
Turning to A25C U43A, the self-cleavage was found to be 0.09.
The result for A25C U43C reads 0.04; that for A25C U43G, 0.12; that for A25G C42U, 0.26.
The result for A25G C42A reads 0.09; that for A25G C42G, 0.05; that for A24U G35C, 0.09.
A24U G35U: the self-cleavage was 0.38.
Take A24U G35A: the self-cleavage was found to be 0.12.
Take A24G G27U: the self-cleavage was determined as 0.57.
In the case of A24G G27A, the self-cleavage was found to be 0.98.
For the variant A24G G27C, the self-cleavage is 0.9.
On to A24U C37A, for which the self-cleavage was found to be 0.05.
Regarding A24U C37U, the self-cleavage was 0.07.
The result for A24U C37G reads 0.05; that for A25G G44C, 0.19.
In the case of A25G G44A, the self-cleavage is 0.21.
The result for A25G G44U reads 0.28.
In the case of A24U C31A, the self-cleavage was found to be 0.07.
Turning to A24U C31U, the self-cleavage worked out at 0.25.
A24U C31G: the self-cleavage came out at 0.08.
With A25C U28A, the self-cleavage stood at 1.37.
As for A25C U28G, the self-cleavage turned out to be 0.65.
On to A25C U28C, for which the self-cleavage stood at 0.44.
In the case of A24C G44A, the self-cleavage stood at 0.18.
As for A24C G44C, the self-cleavage was 0.47.
Consider A24C G44U, for which the self-cleavage is 0.13.
The result for A25U G35C reads 0.09.
In the case of A25U G35A, the self-cleavage worked out at 0.12.
Turning to A25U G35U, the self-cleavage is 0.16.
The result for A24U G40C reads 0.11; that for A24U G40A, 0.14; that for A24U G40U, 0.19.
For A25U U28G, the self-cleavage came out at 0.82.
Take A25U U28A: the self-cleavage worked out at 0.5.
For A25U U28C, the self-cleavage amounted to 1.19.
For the variant A25U A41C, the self-cleavage came to 0.07.
In the case of A25U A41G, the self-cleavage worked out at 0.38.
Take A25U A41U: the self-cleavage was found to be 0.6.
A25C G44C: the self-cleavage was 0.23.
The result for A25C G44U reads 0.16.
Take A25C G44A: the self-cleavage is 0.42.
For the variant A24C G40C, the self-cleavage came out at 0.05.
The result for A24C G40U reads 0.11; that for A24C G40A, 0.07; that for A25C G30A, 0.44.
Turning to A25C G30U, the self-cleavage was found to be 1.11.
The result for A25C G30C reads 1.64; that for A24G G30A, 1.11.
As for A24G G30U, the self-cleavage was determined as 2.49.
The result for A24G G30C reads 1.12.
Regarding A24U G33A, the self-cleavage was 0.05.
For the variant A24U G33C, the self-cleavage was determined as 0.06.
Consider A24U G33U, for which the self-cleavage was 0.08.
For the variant A24U G27A, the self-cleavage is 0.92.
As to A24U G27U, the self-cleavage was 0.8.
For A24U G27C, the self-cleavage was found to be 0.61.
A25U A39C: the self-cleavage amounted to 0.23.
Regarding A25U A39G, the self-cleavage was 0.07.
With A25U A39U, the self-cleavage was found to be 0.86.
For the variant A24G G35A, the self-cleavage worked out at 0.12.
The result for A24G G35U reads 0.13; that for A24G G35C, 0.17.
For A25G G35C, the self-cleavage turned out to be 0.04.
As to A25G G35U, the self-cleavage turned out to be 0.06.
